Measurements reported in PMC4414354, “The Pentameric Nucleoplasmin Fold Is Present in Drosophila FKBP39 and a Large Number of Chromatin-Related Proteins” (Journal of Molecular Biology, 2015).

What was measured:
[1] = molecular target: the molecule itself; assay: SAXS; HD2 NPL 1.0-5.0 mg/mL and FKBP39 NPL 1.0-20.0 mg/mL, 50 mM Hepes pH 7.5, 100 mM NaCl, 11 °C, ESRF BioSAXS beamline ID14eh3; FKBP39 modelled with P5, HD2 with P25 symmetry
[2] = molecular target: the molecule itself; assay: SEC; S200 or S75 120-mL column in 20 mM Tris-HCl pH 8.0, 150 mM (salt not given), 2 mM β-mercaptoethanol; apparent molecular weight
[3] = molecular target: the molecule itself; assay: SANS; deuterated FKBP39 NPL, 2.0-10.0 mg/mL, 20 mM 4-morpholineethanesulfonic acid pH 6.0, 25 mM NaCl, 20 °C; bead model fitted with 5-fold symmetry
[4] = molecular target: the molecule itself; assay: SAXS; Fpr4Δloop, 1.0-4.0 mg/mL, 50 mM Hepes pH 7.5, 100 mM NaCl, 11 °C, beamline X33 (EMBL/DESY Hamburg); P5 symmetry

B1: Arabidopsis thaliana type 2 histone deacetylase HD2 NPL domain (HD2a, amino acids 1-112) (domain or fragment, UniProt Q56WH4 1-112, looked up)
chain: MEFWGVAVTPKNATKVTPEEDSLVHISQASLDCTVKSGESVVLSVTVGGAKLVIGTLSQDKFPQISFDLVFDKEFELSHSGTKANVHFIGYKSPNIEQDDFTSSDDEDVPEA
notes: type 2 histone deacetylase (printed as HD2a), Arabidopsis thaliana, amino acids 1-112; also called Arabidopsis NPL construct; A thali; source: E. coli BL21 (DE3), purified; copies: 10
- stoichiometry N [1]: 10

B2: FKBP39 NPL domain (N-terminal nucleoplasmin-like domain of Drosophila FKBP39, residues 1-92) (domain or fragment, Drosophila melanogaster)
chain: QGAMAMFWGLNMKPERKYSQTIIKSFHISGVALDKGQEAKLYLAAEKQEYIVATVTKAIPQVALDLNFSKGDRIMFYTAGDASVSLLGYLHDIDSGS
notes: 3-4 additional amino acids left at the N-terminus after chymotrypsin cleavage, printed as [F]QGA: with or without the leading F; second amino acid changed from Ser to Ala for the NcoI cloning site; dipeptide from the BamHI site at the C-terminus; Deuterated or otherwise isotope-labelled samples were used for SANS and NMR; The structure was deposited at the PDB; also called N-terminal domain of …
- stoichiometry N [2]: ~5
- stoichiometry N [3]: 5

B3: Fpr4 NPLΔloop (S. cerevisiae Fpr4 amino acids 1-168 with the β4-β5 loop deleted) (domain or fragment, Saccharomyces cerevisiae, UniProt Q06205 1-168, looked up)
chain: MSDMLPLATYSLNVEPYSPTPALNFKIPVTIRITMAAIDPEPFDDDKKPSTLRIIKRNEIDDEFEECVLLTLSPKGQYQQALDITIAPEEDVQFVVTGSYTISLTGNYVKHPF
notes: Fpr4, Saccharomyces cerevisiae, amino acids 1-58 joined to 114-168 by overlap deletion PCR; The construct contains a C-terminal unstructured tail seen in the SAXS model; also called Fpr4Δloop; Fpr4 NPL domain; source: E. coli BL21 (DE3), purified
- stoichiometry N [4]: 5
